Assay results: the supplement of paper PMC10598134
± gives the standard deviation.

Experiment: collision cross section of modified peptide (TIMS, N2, iRT-aligned); higher = larger / more extended gas-phase ion
Procedure, shortened: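 Collision cross section was derived from the Mason-Schamp equation. Each value averages 1–3 technical replicates of the most abundant feature per charge state, measured on a timsTOF Pro/HT in dda-PASEF mode (nitrogen, ~2.4 mbar) after a 120-min nanoflow C18 gradient at 60 °C. Synthetic peptide pools (~100 fmol/µL in 2% acetonitrile/0.1% formic acid, iRT standard spiked 1:40) were identified with MaxQuant, and 1/K0 was calibrated with three reference ions and aligned run-wise to the median iRT peptide deviation.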

[1] = charge state: 2, modification: Glutarylation
[2] = charge state: 3, modification: Glutarylation
[3] = charge state: 2, modification: GlyGly (K)
[4] = charge state: 3, modification: GlyGly (K)
[5] = charge state: 2, modification: Malonyl
[6] = charge state: 3, modification: Malonyl
[7] = charge state: 3, modification: Methyl (K)
[8] = charge state: 2, modification: Succinyl
[9] = charge state: 3, modification: Trimethyl (K)
[10] = charge state: 2, modification: hydroxyisobutyryl
[11] = charge state: 3, modification: hydroxyisobutyryl
[12] = charge state: 2, modification: HexNAc (ST)
[13] = charge state: 2, modification: Acetyl (K)
[14] = charge state: 2, modification: Biotin
[15] = charge state: 2, modification: Butyryl
[16] = charge state: 2, modification: Crotonyl
[17] = charge state: 2, modification: Dimethyl (K)
[18] = charge state: 3, modification: Dimethyl (K)
[19] = charge state: 2, modification: Formyl

VLDSGAPIKIPVGPETLGR [_VLDSGAPIK(Gluratylation)IPVGPETLGR_]
collision cross section [1]: 465.83 ± 1.5 Å² | collision cross section [2]: 505.05 ± 1 Å²

VLDSGAPIKIPVGPETLGR [_VLDSGAPIK(GlyGly (K))IPVGPETLGR_]
collision cross section [3]: 467.11 ± 1.6 Å² | collision cross section [4]: 510.19 ± 1.1 Å²

VLDSGAPIKIPVGPETLGR [_VLDSGAPIK(Malonyl)IPVGPETLGR_]
collision cross section [5]: 468.64 ± 1.6 Å² | collision cross section [6]: 512.64 ± 6.2 Å²

VLDSGAPIKIPVGPETLGR [_VLDSGAPIK(Methyl (K))IPVGPETLGR_]
collision cross section [7]: 510.82 ± 2.8 Å²

VLDSGAPIKIPVGPETLGR [_VLDSGAPIK(Succinyl)IPVGPETLGR_]
collision cross section [8]: 470.32 ± 0.95 Å²

VLDSGAPIKIPVGPETLGR [_VLDSGAPIK(Trimethyl (K))IPVGPETLGR_]
collision cross section [9]: 508.9 ± 0.87 Å²

VLDSGAPIKIPVGPETLGR [_VLDSGAPIK(hydroxyisobutyryl)IPVGPETLGR_]
collision cross section [10]: 472.45 ± 0.87 Å² | collision cross section [11]: 522.22 ± 1.2 Å²

VLPSITTEILK [_VLPS(HexNAc (ST))ITTEILK_]
collision cross section [12]: 396.57 Å²

VLSIGDGIAR [_VLS(HexNAc (ST))IGDGIAR_]
collision cross section [12]: 372.66 ± 0.12 Å²

VLTANSNPSSPSAAKR [_VLTANSNPSSPSAAK(Acetyl (K))R_]
collision cross section [13]: 425 ± 2.5 Å² | collision cross section (charge state: 3, modification: Acetyl (K)): 527.55 ± 2.3 Å²

VLTANSNPSSPSAAKR [_VLTANSNPSSPSAAK(Biotin)R_]
collision cross section [14]: 443.24 ± 0.79 Å² | collision cross section (charge state: 3, modification: Biotin): 547.09 ± 3.1 Å²

VLTANSNPSSPSAAKR [_VLTANSNPSSPSAAK(Butyryl)R_]
collision cross section [15]: 432.84 ± 1.8 Å² | collision cross section (charge state: 3, modification: Butyryl): 531.28 ± 2.7 Å²

VLTANSNPSSPSAAKR [_VLTANSNPSSPSAAK(Crotonyl)R_]
collision cross section [16]: 433.68 ± 1.1 Å² | collision cross section (charge state: 3, modification: Crotonyl): 528.16 ± 1.7 Å²

VLTANSNPSSPSAAKR [_VLTANSNPSSPSAAK(Dimethyl (K))R_]
collision cross section [17]: 441.07 ± 1.1 Å² | collision cross section [18]: 518.06 ± 0.76 Å²

VLTANSNPSSPSAAKR [_VLTANSNPSSPSAAK(Formyl)R_]
collision cross section [19]: 421.8 ± 0.8 Å² | collision cross section (charge state: 3, modification: Formyl): 501.92 ± 27 Å²

VLTANSNPSSPSAAKR [_VLTANSNPSSPSAAK(Gluratylation)R_]
collision cross section [1]: 432.88 ± 2 Å² | collision cross section [2]: 532.45 ± 0.12 Å²

VLTANSNPSSPSAAKR [_VLTANSNPSSPSAAK(GlyGly (K))R_]
collision cross section [3]: 445.95 ± 0.95 Å² | collision cross section [4]: 511.93 ± 0.35 Å²

VLTANSNPSSPSAAKR [_VLTANSNPSSPSAAK(Malonyl)R_]
collision cross section [5]: 426.78 ± 1.6 Å² | collision cross section [6]: 452.99 Å²

VLTANSNPSSPSAAKR [_VLTANSNPSSPSAAK(Methyl (K))R_]
collision cross section (charge state: 2, modification: Methyl (K)): 432.87 ± 1.5 Å² | collision cross section [7]: 521.25 ± 1.8 Å²

VLTANSNPSSPSAAKR [_VLTANSNPSSPSAAK(Propionyl)R_]
collision cross section (charge state: 2, modification: Propionyl): 429.75 ± 0.38 Å² | collision cross section (charge state: 3, modification: Propionyl): 528.16 ± 0.65 Å²

VLTANSNPSSPSAAKR [_VLTANSNPSSPSAAK(Succinyl)R_]
collision cross section [8]: 430.61 ± 1.1 Å² | collision cross section (charge state: 3, modification: Succinyl): 526.23 ± 1.1 Å²

VLTANSNPSSPSAAKR [_VLTANSNPSSPSAAK(Trimethyl (K))R_]
collision cross section (charge state: 2, modification: Trimethyl (K)): 445.51 ± 0.016 Å² | collision cross section [9]: 518.89 ± 1.6 Å²

VLTANSNPSSPSAAKR [_VLTANSNPSSPSAAK(hydroxyisobutyryl)R_]
collision cross section [10]: 434.9 ± 0.8 Å² | collision cross section [11]: 533.81 ± 2 Å²

VMVAPISGSVTTGTK [_VMVAPIS(HexNAc (ST))GSVTTGTK_]
collision cross section [12]: 423.51 ± 0.62 Å²

VNALKNLQVK [_VNALK(Acetyl (K))NLQVK_]
collision cross section [13]: 369.79 ± 0.48 Å²

VNALKNLQVK [_VNALK(Biotin)NLQVK_]
collision cross section [14]: 393.86 ± 0.23 Å²

VNALKNLQVK [_VNALK(Butyryl)NLQVK_]
collision cross section [15]: 377.18 ± 0.8 Å²

VNALKNLQVK [_VNALK(Crotonyl)NLQVK_]
collision cross section [16]: 376.57 ± 0.8 Å²

VNALKNLQVK [_VNALK(Dimethyl (K))NLQVK_]
collision cross section [17]: 371.74 ± 0.57 Å² | collision cross section [18]: 421.1 Å²

VNALKNLQVK [_VNALK(Formyl)NLQVK_]
collision cross section [19]: 363.1 ± 0.39 Å²

VNALKNLQVK [_VNALK(Gluratylation)NLQVK_]
collision cross section [1]: 376.79 ± 0.1 Å²

VNALKNLQVK [_VNALK(GlyGly (K))NLQVK_]
collision cross section [3]: 383.13 ± 0.38 Å² | collision cross section [4]: 444.03 ± 1.9 Å²
